Patent US20170247475A1 (Boehringer Ingelheim, published 2017)
Where two headings read alike, the source gives them in different places.

Assays:
cAng2 [1] = biological target: T1, cAng2 (cynomolgus monkey); experiment: competition ELISA, blocking of cAng2 binding to cTie2-Fc
T1 construct: may be the same protein as m21 (cyno Ang2-FLD); also called cyno Ang2

hAng2 [2] = biological target: T2, hAng2; experiment: competition ELISA, blocking of hAng2 binding to hTie2-Fc
T2 construct: may be the same protein as m20 (human Ang2-FLD); also called human Ang2
T2 chain: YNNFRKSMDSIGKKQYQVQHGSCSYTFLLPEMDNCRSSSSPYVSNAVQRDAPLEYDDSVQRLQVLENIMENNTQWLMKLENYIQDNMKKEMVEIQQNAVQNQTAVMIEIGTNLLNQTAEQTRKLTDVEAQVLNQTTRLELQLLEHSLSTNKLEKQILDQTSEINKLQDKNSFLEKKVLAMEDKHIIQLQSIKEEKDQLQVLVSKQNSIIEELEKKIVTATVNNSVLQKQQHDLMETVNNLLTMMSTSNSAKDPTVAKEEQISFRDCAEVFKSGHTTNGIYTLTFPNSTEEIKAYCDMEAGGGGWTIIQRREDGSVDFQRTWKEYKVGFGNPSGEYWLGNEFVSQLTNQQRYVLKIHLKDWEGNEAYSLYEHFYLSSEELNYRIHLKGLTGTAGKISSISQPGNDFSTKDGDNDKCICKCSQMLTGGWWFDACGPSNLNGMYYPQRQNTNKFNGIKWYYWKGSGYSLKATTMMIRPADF

mAng2 [3] = biological target: T3, mAng2; experiment: competition ELISA, blocking of mAng2 binding to mTie2-Fc
T3 construct: may be the same protein as m22 (mouse Ang2-FLD); also called mouse Ang2
T3 chain: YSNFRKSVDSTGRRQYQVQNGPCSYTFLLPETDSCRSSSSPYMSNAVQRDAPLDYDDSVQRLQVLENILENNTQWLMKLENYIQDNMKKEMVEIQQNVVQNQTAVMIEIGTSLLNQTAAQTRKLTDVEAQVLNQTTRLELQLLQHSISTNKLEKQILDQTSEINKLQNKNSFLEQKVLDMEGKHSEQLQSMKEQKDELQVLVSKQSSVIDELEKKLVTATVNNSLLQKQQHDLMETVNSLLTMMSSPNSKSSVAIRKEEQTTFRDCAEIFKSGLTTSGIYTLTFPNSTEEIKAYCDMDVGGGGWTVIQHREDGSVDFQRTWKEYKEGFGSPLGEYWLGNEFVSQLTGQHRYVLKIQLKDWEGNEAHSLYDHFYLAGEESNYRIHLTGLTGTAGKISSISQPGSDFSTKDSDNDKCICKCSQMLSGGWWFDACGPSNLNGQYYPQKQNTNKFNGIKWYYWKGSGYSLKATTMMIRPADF

hAng2 [4] = biological target: T2, hAng2; experiment: cell-based or functional assay
hAng2 [5] = biological target: T2, hAng2; experiment: cell-based or functional assay
mAng2 [6] = biological target: T3, mAng2; experiment: competition ELISA, blocking of mAng2 binding to mTie2-Fc
cAng2 [7] = biological target: T1, cAng2; experiment: competition ELISA, blocking of cAng2 binding to cTie2-Fc; remark: listed apart in the source
hAng2 [8] = biological target: T2, hAng2; experiment: competition ELISA, blocking of hAng2 binding to hTie2-Fc
mAng2 [9] = biological target: T4, mAng2; experiment: competition ELISA, blocking of mAng2 binding to mTie2
T4 construct: also called mouse Ang2
T4 chain: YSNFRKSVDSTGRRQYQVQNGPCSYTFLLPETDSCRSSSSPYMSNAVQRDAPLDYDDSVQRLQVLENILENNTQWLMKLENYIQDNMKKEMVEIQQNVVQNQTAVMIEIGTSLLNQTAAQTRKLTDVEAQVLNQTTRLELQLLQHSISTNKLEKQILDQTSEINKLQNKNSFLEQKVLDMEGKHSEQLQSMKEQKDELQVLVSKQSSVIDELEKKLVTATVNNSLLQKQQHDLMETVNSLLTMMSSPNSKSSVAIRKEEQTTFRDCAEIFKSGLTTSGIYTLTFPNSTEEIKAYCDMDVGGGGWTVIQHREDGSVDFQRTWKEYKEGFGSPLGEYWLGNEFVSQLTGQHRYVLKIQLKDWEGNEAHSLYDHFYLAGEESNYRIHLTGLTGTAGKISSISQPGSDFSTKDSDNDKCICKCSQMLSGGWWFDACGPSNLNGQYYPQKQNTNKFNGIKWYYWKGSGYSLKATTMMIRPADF

hAng2 [10] = biological target: T5, hAng2; experiment: competition ELISA, blocking of hAng2 binding to hTie2
T5 construct: also called human Ang2
T5 chain: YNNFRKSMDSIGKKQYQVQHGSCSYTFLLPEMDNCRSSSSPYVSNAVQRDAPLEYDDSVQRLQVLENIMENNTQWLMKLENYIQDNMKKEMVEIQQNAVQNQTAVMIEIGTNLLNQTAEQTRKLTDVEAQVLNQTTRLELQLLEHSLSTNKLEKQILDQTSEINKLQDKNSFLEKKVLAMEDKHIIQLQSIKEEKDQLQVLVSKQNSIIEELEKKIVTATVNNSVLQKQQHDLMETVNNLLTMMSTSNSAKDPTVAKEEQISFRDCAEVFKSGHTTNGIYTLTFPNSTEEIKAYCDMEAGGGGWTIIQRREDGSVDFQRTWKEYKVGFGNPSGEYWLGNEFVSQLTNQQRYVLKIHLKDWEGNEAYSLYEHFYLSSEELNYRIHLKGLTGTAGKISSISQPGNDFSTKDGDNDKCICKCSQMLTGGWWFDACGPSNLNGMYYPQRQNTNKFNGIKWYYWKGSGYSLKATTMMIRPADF

cAng2 [11] = biological target: T6, cAng2 (cynomolgus monkey); experiment: competition ELISA, blocking of cAng2 binding to cTie2
T6 construct: also called cyno Ang2

hAng2 [12] = biological target: T5, hAng2; experiment: competition ELISA, blocking of hAng2 binding to hTie2
mAng2 [13] = biological target: T4, mAng2; experiment: competition ELISA, blocking of mAng2 binding to mTie2
cAng2 [14] = biological target: T6, cAng2; experiment: competition ELISA, blocking of cAng2 binding to cTie2; remark: listed apart in the source
hAng2 [15] = biological target: T2, hAng2; experiment: competition ELISA, blocking of hAng2 binding to hTie2-Fc
cAng2 [16] = biological target: T1, cAng2; experiment: competition ELISA, blocking of cAng2 binding to cTie2-Fc; remark: listed apart in the source
hAng2 [17] = biological target: T2, hAng2; experiment: cell-based or functional assay
mAng2 [18] = biological target: T3, mAng2; experiment: competition ELISA, blocking of mAng2 binding to mTie2-Fc
mAng2 [19] = biological target: T7, mAng2; experiment: competition ELISA mAng2/mTie2-Fc; blocked: mTie2-Fc
T7 construct: also called mouse Ang2
T7 chain: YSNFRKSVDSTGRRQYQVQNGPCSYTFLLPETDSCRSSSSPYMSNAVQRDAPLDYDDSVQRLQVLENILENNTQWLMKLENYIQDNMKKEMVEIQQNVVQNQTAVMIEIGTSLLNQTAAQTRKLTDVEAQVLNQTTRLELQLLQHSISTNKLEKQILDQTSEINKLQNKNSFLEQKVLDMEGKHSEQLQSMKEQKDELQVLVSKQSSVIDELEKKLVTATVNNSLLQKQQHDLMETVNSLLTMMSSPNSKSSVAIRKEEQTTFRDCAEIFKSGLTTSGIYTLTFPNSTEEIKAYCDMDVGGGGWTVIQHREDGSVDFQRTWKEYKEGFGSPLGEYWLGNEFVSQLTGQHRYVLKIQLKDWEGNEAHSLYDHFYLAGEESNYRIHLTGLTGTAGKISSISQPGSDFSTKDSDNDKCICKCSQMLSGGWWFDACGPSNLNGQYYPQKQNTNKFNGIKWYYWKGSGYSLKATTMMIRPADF

mAng2 [20] = biological target: T7, mAng2; experiment: as above
mAng2 [21] = biological target: T7, mAng2; experiment: as above
cAng2 [22] = biological target: T8, cAng2 (cynomolgus monkey); experiment: competition ELISA cAng2/cTie2-Fc; blocked: cTie2-Fc
T8 construct: construct not given; also called cyno Ang2

cAng2 [23] = biological target: T8, cAng2; experiment: as above; remark: listed apart in the source
cAng2 [24] = biological target: T8, cAng2; experiment: as above; remark: listed apart in the source
hAng2 [25] = biological target: T9, hAng2; experiment: competition ELISA hAng2/hTie2-Fc; blocked: hTie2-Fc
T9 construct: also called human Ang2
T9 chain: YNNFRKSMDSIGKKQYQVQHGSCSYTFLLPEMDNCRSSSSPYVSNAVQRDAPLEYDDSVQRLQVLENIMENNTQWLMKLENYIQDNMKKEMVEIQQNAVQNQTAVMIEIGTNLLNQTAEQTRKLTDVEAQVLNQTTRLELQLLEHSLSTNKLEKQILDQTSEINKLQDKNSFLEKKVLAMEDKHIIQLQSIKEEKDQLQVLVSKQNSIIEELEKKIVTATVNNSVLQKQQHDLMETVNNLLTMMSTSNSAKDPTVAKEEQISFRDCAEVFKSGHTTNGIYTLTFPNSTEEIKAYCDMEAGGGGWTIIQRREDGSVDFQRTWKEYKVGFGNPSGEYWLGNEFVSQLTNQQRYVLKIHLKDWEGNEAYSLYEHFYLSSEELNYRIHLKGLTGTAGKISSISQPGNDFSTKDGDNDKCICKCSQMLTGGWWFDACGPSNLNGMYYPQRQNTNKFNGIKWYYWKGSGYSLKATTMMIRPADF

B1: 00938 (VHH)
VHH: EVQLVESGGGLVQPGGSLRLSCAVSGITLDDYAIGWFRQAPGKEREGVSAIRSSGGSTYYADSVKGRFTISSDNSKNTVYLQMNSLRPEDTAVYYCAAVPAGRLRYGEQWYPIYEYDAWGQGTLVTVSS
With B1 the “IC50 (read off the curve)” value (cAng2 [1]) was roughly 0.09 nM, the “IC50 (read off the curve)” value (hAng2 [2]) was roughly 0.04 nM and the “IC50 (read off the curve)” value (mAng2 [3]) was roughly 0.05 nM. The “IC50 (read off the curve), hAng2 mediated HUVEC survival” value (“IC50 … hAng2 mediated HUVEC survival” for short) (hAng2 [4]) was roughly 5 nM.

B2: 00956 (VHH)
VHH: EVQLVESGGGLVQPGGSLRLSCAASGFTLDDYAIGWFRQAPGKEREGVSAIRSSGGSTYYADSVKGRFTISSDNSKNTVYLQMNSLRPEDTAVYYCAAVPAGRLRFGEQWYPLYEYDAWGQGTLVTVSS
In the case of B2, the “IC50 … hAng2 mediated HUVEC survival” value (hAng2 [5]) is reported as roughly 6 nM, the “IC50 (read off the curve)” value (mAng2 [6]) is reported as roughly 3 nM and the “IC50 (read off the curve)” value (cAng2 [7]) is reported as roughly 2 nM. For the same binder, the “IC50 (read off the curve)” value (hAng2 [8]) was roughly 1 nM.

B3: ANGBII00004 (VHH)
bivalent VHH: EVQLVESGGGLVQAGGSLRLSCAASGFTLDDYAIGWFRQAPGKEREGVSSIRDNDGSTYYADSVKGRFTISSDNDKNTVYLQMNSLKPEDTAVYYCAAVPAGRLRFGEQWYPLYEYDAWGQGTLVTVSSGGGGSGGGSEVQLVESGGGLVQAGGSLRLSCAASGFTLDDYAIGWFRQAPGKEREGVSSIRDNDGSTYYADSVKGRFTISSDNDKNTVYLQMNSLKPEDTAVYYCAAVPAGRLRFGEQWYPLYEYDAWGQGTLVTVSS
notes: homodimeric anti-Ang2 VHH; also called 00027-9gs-00027
B3 was tested, and the “IC50 (read off the curve)” value (mAng2 [9]) was roughly 0.03 nM, the “IC50 (read off the curve)” value (hAng2 [10]) was roughly 0.01 nM and the “IC50 (read off the curve)” value (cAng2 [11]) was roughly 0.04 nM.

B4: ANGBII00003 (VHH)
bivalent VHH: EVQLVESGGGLVQVGDSLRLSCAASGRTFSTYLMVGWFRQAPGKEREFAAGIWSSGDTAYADSVRGRFTISRDNAKNTVYLQMNSLKTEDTAVYYCAGSYDGNYYIPGFYKDWGQGTLVTVSSGGGGSGGGSEVQLVESGGGLVQVGDSLRLSCAASGRTFSTYLMVGWFRQAPGKEREFAAGIWSSGDTAYADSVRGRFTISRDNAKNTVYLQMNSLKTEDTAVYYCAGSYDGNYYIPGFYKDWGQGTLVTVSS
notes: homodimeric anti-Ang2 VHH; also called 11B07-9gs-11B07
In the case of B4, the “IC50 (read off the curve)” value (hAng2 [12]) is reported as roughly 0.03 nM, the “IC50 (read off the curve)” value (mAng2 [13]) is reported as roughly 0.04 nM and the “IC50 (read off the curve)” value (cAng2 [14]) is reported as roughly 0.03 nM.

B5: 00921 (VHH)
VHH: EVQLVESGGGLVQPGGSLRLSCAASGFTFDDYALGWFRQAPGKEREGVSCIRCSGGSTYYADSVKGRFTISSDNSKNTVYLQMNSLRPEDTAVYYCAASIVPRSKLEPYEYDAWGQGTLVTVSS
With B5 the “IC50 (read off the curve)” value (hAng2 [15]) was roughly 20 nM, the “IC50 (read off the curve)” value (cAng2 [16]) was roughly 50 nM and the “IC50 … hAng2 mediated HUVEC survival” value (hAng2 [17]) was roughly 30 nM. For the same binder, the “IC50 (read off the curve)” value (mAng2 [18]) was roughly 30 nM.

B6: 1D01 (VHH)
VHH: EVQLVESGGGLVQAGGSLRLSCAASGFTFDDYALGWFRQAAGKEREGVSCIRCSDGSTYYADSVKGRFTISSDNAKNTVYLQMNSLKPEDTAVYYCAASIVPRSKLEPYEYDAWGQGTQVTVSS
With B6 the “IC50 (read off the curve)” value (mAng2 [19]) was roughly 10 nM, the “IC50 (read off the curve)” value (mAng2 [20]) was roughly 10 nM and the “IC50 (read off the curve)” value (mAng2 [21]) was roughly 10 nM. For the same binder, the “IC50 (read off the curve)” value (cAng2 [22]) was roughly 10 nM, the “IC50 (read off the curve)” value (cAng2 [23]) was roughly 10 nM and the “IC50 (read off the curve)” value (cAng2 [24]) was roughly 10 nM. The “IC50 (read off the curve)” value (hAng2 [25]) was roughly 8 nM.
